Biological target: T1, human c-Met/Fc fusion protein (R&D Systems) (human, UniProt P08581 25-932)
T1 construct: Purchased reagent coated on ELISA plates; also called human c-Met/Fc protein; not shown: Fc part of the purchased fusion
Test: ELISA, hybridoma culture on plate-coated human c-Met/Fc fusion protein (2 ug/mL)
Description: Human c-Met/Fc fusion protein was seeded in an amount of 50 μL (2 μg/mL)/well to microtiter plates and allowed to adhere to the surface of each well. The antibody that remained unbound was removed by washing.
The hybridoma cell culture obtained in Reference Example 1.1.2 was added in an amount of 50 μL to each well of the plates and incubated for 1 hour. The cells remaining unreacted were washed out with a sufficient amount of Tris-buffered saline and Tween 20 (TBST). Goat anti-mouse IgG-horseradish peroxidase (HRP) was added to the plates and incubated for 1 hour at room temperature. The plates were washed with a sufficient amount of TBST, followed by reacting the peroxidase with a substrate (OPD). Absorbance at 450 nm was measured on an ELISA reader.

T1 sequence (P08581 25-932): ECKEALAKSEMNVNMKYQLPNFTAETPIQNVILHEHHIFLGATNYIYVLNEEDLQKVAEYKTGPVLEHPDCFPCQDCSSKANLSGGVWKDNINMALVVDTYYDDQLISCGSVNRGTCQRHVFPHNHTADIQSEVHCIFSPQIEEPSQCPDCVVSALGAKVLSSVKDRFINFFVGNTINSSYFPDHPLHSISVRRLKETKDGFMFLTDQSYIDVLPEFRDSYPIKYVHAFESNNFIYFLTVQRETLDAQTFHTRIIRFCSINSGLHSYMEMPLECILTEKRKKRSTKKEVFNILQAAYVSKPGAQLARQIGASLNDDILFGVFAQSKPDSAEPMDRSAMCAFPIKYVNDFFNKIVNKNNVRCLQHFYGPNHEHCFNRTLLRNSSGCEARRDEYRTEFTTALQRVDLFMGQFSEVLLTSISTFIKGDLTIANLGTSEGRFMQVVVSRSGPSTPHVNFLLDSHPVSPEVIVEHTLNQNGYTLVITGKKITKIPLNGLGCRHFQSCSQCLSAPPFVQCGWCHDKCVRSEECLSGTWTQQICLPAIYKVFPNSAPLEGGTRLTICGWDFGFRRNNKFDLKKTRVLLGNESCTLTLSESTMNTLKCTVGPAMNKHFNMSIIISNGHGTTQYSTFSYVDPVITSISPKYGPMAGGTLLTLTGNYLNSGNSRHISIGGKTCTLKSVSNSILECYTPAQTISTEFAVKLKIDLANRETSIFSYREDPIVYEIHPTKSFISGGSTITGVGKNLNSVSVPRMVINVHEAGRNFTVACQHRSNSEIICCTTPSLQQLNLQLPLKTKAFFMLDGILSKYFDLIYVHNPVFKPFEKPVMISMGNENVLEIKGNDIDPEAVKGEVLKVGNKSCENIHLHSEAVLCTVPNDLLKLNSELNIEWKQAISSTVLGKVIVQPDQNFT

binding result: binds
B1: AbF46, a mouse antibody to c-Met (antibody, V domains shown)
VH: EVKLVESGGGLVQPGGSLRLSCATSGFTFTDYYMSWVRQPPGKALEWLGFIRNKANGYTTEYSASVKGRFTISRDNSQSILYLQMDTLRAEDSATYYCARDNWFAYWGQGTLVTVSA
VL: DILMTQSPSSLTVSAGEKVTMSCKSSQSLLASGNQNNYLAWHQQKPGRSPKMLIIWASTRVSGVPDRFIGSGSGTDFTLTINSVQAEDLAVYYCQQSYSAPLTFGAGTKLELK
notes: Mouse monoclonal antibody from the single hybridoma clone chosen by ELISA; In the screening assay it was present as hybridoma culture supernatant; also called monoclonal antibody of hybridoma KCLRF-BP-00220

From US20160144027A1 (SAMSUNG ELECTRONICS, published 2016)
